Source: patent US20020132976A1 (published 2002)

Biological target: T1, membrane-bound HLA-A0201 molecule on T2 cells (human)
T1 construct: whole, on cells; also called surface HLA-A0201 molecules; human MHC class 1 molecule
Experiment: T2 cell HLA-A0201 stabilisation, BB7.2 staining, flow cytometry
Protocol: Thus, the detection of this specific epitope is indicative of stable membrane-bound HLA-A0201 molecules loaded with peptide. Subsequent dissociation of peptides from the HLA class 1 MHC molecules results in the loss of BB7.2 monoclonal antibody binding.
T2 cells were propagated in Iscove's complete medium (iscove's medium supplemented with 10% heat-inactivated bovine serum, 120.0 units per ml of penicillin G sodium, 120 μg per ml of streptomycin sulphate, and 0.35 mg per ml of L-glutamine). The ability of PSA peptides (Table 1) to bind and stabilize surface HLA-A0201 molecules on T2 cells was determined utilizing a protocol documented in the art (Deng, Y. (1997) J Immune 158:1507-1515). In essence, 0.5×10⁶ T2 cells were incubated with 125.0 μM of the test peptide in 200.0 μl of serum-free culture medium (Iscove's medium supplemented with 120.0 units per ml of penicillin G sodium, 120.0 μg per ml of streptomycin sulphate and 0.35 mg per ml of L-glutamine) overnight at 37° C. Subsequently, cells were washed twice with Iscove's medium (without bovine serum) to remove free PSA peptide. […] The binding of BB7.2 was detected via the addition of 100.0 μl of PBA containing […] of goat anti-mouse IgG-Fc fluorescein (FITC) conjugate (BETHYL Laboratories Inc.). […] Samples were analyzed by Flow Cytometry. Results were expressed in units of Fluorescence Index (FI), calculated by the equation: […]

binding result: no binding
Binder: DLHVISNDV [CLP-317]
